{
  "source": "paper PMC2777438",
  "key": {"Δ14ArtA": {"target": "T1, Δ14ArtA (Staphylococcus aureus plasmid pSK41, UniProt Q52270 15-62, del1-14)", "T1 chain": "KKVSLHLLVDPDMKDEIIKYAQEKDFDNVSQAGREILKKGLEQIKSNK", "assay": "fluorescence polarization"}, "ArtA [1]": {"target": "T2, ArtA (Staphylococcus aureus plasmid pSK41, UniProt Q52270 1-62)", "T2 sequence": "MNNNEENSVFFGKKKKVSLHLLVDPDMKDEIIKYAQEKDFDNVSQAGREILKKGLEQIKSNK", "assay": "fluorescence polarization"}, "ArtA [2]": {"target": "T2, ArtA", "assay": "fluorescence polarization", "remark": "listed apart in the source"}, "ArtA [3]": {"target": "T2, ArtA", "assay": "fluorescence polarization", "remark": "listed apart in the source"}, "ArtA [4]": {"target": "T2, ArtA", "assay": "fluorescence polarization", "remark": "listed apart in the source"}, "ArtA [5]": {"target": "T2, ArtA", "assay": "fluorescence polarization", "remark": "listed apart in the source"}, "ArtA [6]": {"target": "T2, ArtA", "assay": "crystal structure"}},
  "note": "Like-named read-outs stand apart in the source and are kept apart here.",
  "data": [
    {"binder": "PtraA operator (dsDNA) DNA 1: TTACATGACATGACATGTAATAC DNA 2: GTATTACATGTCATGTCATGTAA", "values": [
      {"measurement": "Kd", "setting": "Δ14ArtA", "result": "52 ± 6", "unit": "nM"},
      {"measurement": "Kd", "setting": "ArtA [1]", "result": "42 ± 9", "unit": "nM"}
    ]},
    {"binder": "Porf538 right half site (dsDNA) DNA 1: AAATGACACGT DNA 2: ACGTGTCATTT", "values": [
      {"measurement": "binding result", "setting": "Δ14ArtA", "result": "no binding"},
      {"measurement": "binding result", "setting": "ArtA [1]", "result": "no binding"}
    ]},
    {"binder": "22-mer operator (dsDNA) DNA 1: CAAACATGATATGACATGTAAT DNA 2: ATTACATGTCATATCATGTTTG", "values": [
      {"measurement": "Kd", "setting": "Δ14ArtA", "result": "58 ± 5", "unit": "nM"},
      {"measurement": "Kd", "setting": "ArtA [1]", "result": "62 ± 6", "unit": "nM"}
    ]},
    {"binder": "PtraL operator (dsDNA) DNA 1: TGCATTACATGACATGACATGTAAT DNA 2: ATTACATGTCATGTCATGTAATGCA", "values": [
      {"measurement": "Kd", "setting": "Δ14ArtA", "result": "39 ± 5", "unit": "nM"},
      {"measurement": "Kd", "setting": "ArtA [1]", "result": "23 ± 5", "unit": "nM"}
    ]},
    {"binder": "Porf538 21-mer (dsDNA) DNA 1: ACACGACATGAAATGACACGT DNA 2: ACGTGTCATTTCATGTCGTGT", "values": [
      {"measurement": "Kd", "setting": "ArtA [2]", "result": "60 ± 10", "unit": "nM"},
      {"measurement": "Kd", "setting": "ArtA [3]", "result": "58 ± 5", "unit": "nM"},
      {"measurement": "Kd", "setting": "ArtA [4]", "result": "42 ± 7", "unit": "nM"},
      {"measurement": "binding result", "setting": "Δ14ArtA", "result": "no binding"}
    ]},
    {"binder": "Porf538 left half site (dsDNA) DNA 1: ACACGACATCA DNA 2: TGATGTCGTGT", "values": [
      {"measurement": "binding result", "setting": "Δ14ArtA", "result": "no binding"},
      {"measurement": "binding result", "setting": "ArtA [1]", "result": "no binding"}
    ]},
    {"binder": "Porf259 11-mer (dsDNA) DNA 1: ACATGACAGGT DNA 2: ACCTGTCATGT", "values": [
      {"measurement": "binding result", "setting": "Δ14ArtA", "result": "no binding"},
      {"measurement": "Kd", "setting": "ArtA [1]", "result": "790 ± 34", "unit": "nM"}
    ]},
    {"binder": "16-mer consensus (dsDNA) DNA 1: ACATGACATGACATGT DNA 2: ACATGTCATGTCATGT", "values": [
      {"measurement": "Kd", "setting": "Δ14ArtA", "result": "58 ± 3", "unit": "nM"},
      {"measurement": "Kd", "setting": "ArtA [1]", "result": "60 ± 3", "unit": "nM"}
    ]},
    {"binder": "11-mer consensus (dsDNA) DNA 1: ACATGACATGT DNA 2: ACATGTCATGT", "values": [
      {"measurement": "Kd", "setting": "Δ14ArtA", "result": "222 ± 8", "unit": "nM"},
      {"measurement": "Kd", "setting": "ArtA [1]", "result": 127, "unit": "nM"}
    ]},
    {"binder": "Porf259 24-mer (dsDNA) DNA 1: TAAACATTGCATAACATGACAGGT DNA 2: ACCTGTCATGTTATGCAATGTTTA", "values": [
      {"measurement": "binding result", "setting": "Δ14ArtA", "result": "no binding"},
      {"measurement": "binding result", "setting": "ArtA [5]", "result": "no binding"}
    ]},
    {"binder": "12-mer consensus (crystal) (dsDNA, 5-bromouracil at thymines (MAD DNA only)) DNA 1: GACATGACATGT DNA 2: CACATGTCATGT", "values": [
      {"measurement": "binding result", "setting": "ArtA [6]", "result": "binds"}
    ]},
    {"binder": "Porf538 Mutant 1 (dsDNA) DNA 1: ACACTAAATGAAATGACACGT DNA 2: ACGTGTCATTTCATTTAGTGT", "values": [
      {"measurement": "binding result", "setting": "Δ14ArtA", "result": "no binding"},
      {"measurement": "binding result", "setting": "ArtA [1]", "result": "no binding"}
    ]},
    {"binder": "PartA operator (dsDNA) DNA 1: TTGTCATGACATGTCATGTGTAA DNA 2: TTACACATGACATGTCATGACAA", "values": [
      {"measurement": "Kd", "setting": "Δ14ArtA", "result": "41 ± 9", "unit": "nM"},
      {"measurement": "Kd", "setting": "ArtA [1]", "result": "28 ± 8", "unit": "nM"}
    ]},
    {"binder": "Porf538 Mutant 2 (dsDNA) DNA 1: ACACGACATGAAATTAAACGT DNA 2: ACGTTTAATTTCATGTCGTGT", "values": [
      {"measurement": "binding result", "setting": "Δ14ArtA", "result": "no binding"},
      {"measurement": "binding result", "setting": "ArtA [1]", "result": "no binding"}
    ]}
  ]
}
